Publication PMC3359404

Key:
Assay in all cases: purified protein
Details in all cases: 10 mM pyruvate, 0.3 mM NADPH, 150 mM PIPES pH 6.6, room temperature
C[S+](C)CC[C@H](N)C(=O)O = system: C[S+](C)CC[C@H](N)C(=O)O
[1] = system: N[C@@H](Cc1c[nH]cn1)C(=O)O
NC(=O)CC[C@H](N)C(=O)O = system: NC(=O)CC[C@H](N)C(=O)O
NCC(=O)O = system: NCC(=O)O
N[C@@H](CCO)C(=O)O = system: N[C@@H](CCO)C(=O)O
N=C(N)NOCC[C@H](N)C(=O)O = system: N=C(N)NOCC[C@H](N)C(=O)O
N[C@@H](CS)C(=O)O = system: N[C@@H](CS)C(=O)O
N[C@@H](CCS)C(=O)O = system: N[C@@H](CCS)C(=O)O
CSCC[C@H](N)C(=O)O = system: CSCC[C@H](N)C(=O)O

## Ocs (His6-Ocs), octopine synthase (Agrobacterium tumefaciens (strain 15955))
C[S+](C)CC[C@H](N)C(=O)O
  Km: 0.31 ± 0.04 mM
  kcat: 0.817 s⁻¹
  kcat/Km: 2670 M⁻¹ s⁻¹
[1]
  Km: 2.0 ± 0.21 mM
  kcat: 20 s⁻¹
  kcat/Km: 10000 M⁻¹ s⁻¹
NC(=O)CC[C@H](N)C(=O)O
  Km: 5.6 ± 0.6 mM
  kcat: 13 s⁻¹
  kcat/Km: 2330 M⁻¹ s⁻¹
NCC(=O)O
  Km: 30 ± 6 mM
  kcat/Km: 717 M⁻¹ s⁻¹
N[C@@H](CCO)C(=O)O
  Km: 15 ± 3 mM
  kcat: 30 s⁻¹
  kcat/Km: 2000 M⁻¹ s⁻¹
N=C(N)NOCC[C@H](N)C(=O)O
  Km: 2.8 ± 0.5 mM
  kcat: 16.7 s⁻¹
  kcat/Km: 6000 M⁻¹ s⁻¹
N[C@@H](CS)C(=O)O
  Km: 11 ± 3 mM
  kcat: 11.2 s⁻¹
  kcat/Km: 1020 M⁻¹ s⁻¹
N[C@@H](CCS)C(=O)O
  Km: 8.9 ± 1.1 mM
  kcat: 26.7 s⁻¹
  kcat/Km: 3000 M⁻¹ s⁻¹
CSCC[C@H](N)C(=O)O
  Km: 27 ± 6 mM
  kcat: 78.3 s⁻¹
  kcat/Km: 2830 M⁻¹ s⁻¹
